# In US20220227830A1, “QD DOSING OF GIP RECEPTOR AGONIST PEPTIDE COMPOUNDS AND USES THEREOF” (Takeda Pharmaceutical Company Limited, priority 2020, published 2022):
# Starred links: 1 amine or outer side, 2 acyl side, 3 side chain; linkers in the order of their positions; H or OH if unused. Non-standard residues stand in square brackets, D forms with d. Groups on a side chain read outwards from the residue. No end group written: not given here. *: point of attachment. C16 diacid = O=C(O)CCCCCCCCCCCCCCC(=O)*; C15 diacid = O=C(O)CCCCCCCCCCCCCC(=O)*; γGlu = O=C(O)[C@H](CCC(=O)[*:2])N[*:1]; NMeY = CN[C@@H](Cc1ccc(O)cc1)C(=O)O; AEEA = NCCOCCOCC(=O)O; Aib = CC(C)(N)C(=O)O
# B1: Compound 17 (peptide)
# peptide: [NMeY][Aib]EGTFISDYSIALDR[Aib]K([AEEA-AEEA-γGlu-γGlu-C15 diacid])Q[Aib]NFVNWLLAQSPSSGAPPPS-NH2
# modifications: N-terminus assumed
# SMILES: CC[C@H](C)[C@H](NC(=O)[C@H](CO)NC(=O)[C@H](Cc1ccc(O)cc1)NC(=O)[C@H](CC(=O)O)NC(=O)[C@H](CO)NC(=O)[C@@H](NC(=O)[C@H](Cc1ccccc1)NC(=O)[C@@H](NC(=O)CNC(=O)[C@H](CCC(=O)O)NC(=O)C(C)(C)NC(=O)[C@H](Cc1ccc(O)cc1)NC)[C@@H](C)O)[C@@H](C)CC)C(=O)N[C@@H](C)C(=O)N[C@@H](CC(C)C)C(=O)N[C@@H](CC(=O)O)C(=O)N[C@@H](CCCNC(=N)N)C(=O)NC(C)(C)C(=O)N[C@@H](CCCCNC(=O)COCCOCCNC(=O)COCCOCCNC(=O)CC[C@H](NC(=O)CC[C@H](NC(=O)CCCCCCCCCCCCCC(=O)O)C(=O)O)C(=O)O)C(=O)N[C@@H](CCC(N)=O)C(=O)NC(C)(C)C(=O)N[C@@H](CC(N)=O)C(=O)N[C@@H](Cc1ccccc1)C(=O)N[C@H](C(=O)N[C@@H](CC(N)=O)C(=O)N[C@@H](Cc1c[nH]c2ccccc12)C(=O)N[C@@H](CC(C)C)C(=O)N[C@@H](CC(C)C)C(=O)N[C@@H](C)C(=O)N[C@@H](CCC(N)=O)C(=O)N[C@@H](CO)C(=O)N1CCC[C@H]1C(=O)N[C@@H](CO)C(=O)N[C@@H](CO)C(=O)NCC(=O)N[C@@H](C)C(=O)N1CCC[C@H]1C(=O)N1CCC[C@H]1C(=O)N1CCC[C@H]1C(=O)N[C@@H](CO)C(N)=O)C(C)C
# B2: Compound 18 (peptide)
# peptide: [NMeY][Aib]EGTFISDYSIAK([γGlu-γGlu-γGlu-C15 diacid])DR[Aib]AQ[Aib]NFVNWLLAQSPSSGAPPPS-NH2
# modifications: N-terminus assumed
# SMILES: CC[C@H](C)[C@H](NC(=O)[C@H](CO)NC(=O)[C@H](Cc1ccc(O)cc1)NC(=O)[C@H](CC(=O)O)NC(=O)[C@H](CO)NC(=O)[C@@H](NC(=O)[C@H](Cc1ccccc1)NC(=O)[C@@H](NC(=O)CNC(=O)[C@H](CCC(=O)O)NC(=O)C(C)(C)NC(=O)[C@H](Cc1ccc(O)cc1)NC)[C@@H](C)O)[C@@H](C)CC)C(=O)N[C@@H](C)C(=O)N[C@@H](CCCCNC(=O)CC[C@H](NC(=O)CC[C@H](NC(=O)CC[C@H](NC(=O)CCCCCCCCCCCCCC(=O)O)C(=O)O)C(=O)O)C(=O)O)C(=O)N[C@@H](CC(=O)O)C(=O)N[C@@H](CCCNC(=N)N)C(=O)NC(C)(C)C(=O)N[C@@H](C)C(=O)N[C@@H](CCC(N)=O)C(=O)NC(C)(C)C(=O)N[C@@H](CC(N)=O)C(=O)N[C@@H](Cc1ccccc1)C(=O)N[C@H](C(=O)N[C@@H](CC(N)=O)C(=O)N[C@@H](Cc1c[nH]c2ccccc12)C(=O)N[C@@H](CC(C)C)C(=O)N[C@@H](CC(C)C)C(=O)N[C@@H](C)C(=O)N[C@@H](CCC(N)=O)C(=O)N[C@@H](CO)C(=O)N1CCC[C@H]1C(=O)N[C@@H](CO)C(=O)N[C@@H](CO)C(=O)NCC(=O)N[C@@H](C)C(=O)N1CCC[C@H]1C(=O)N1CCC[C@H]1C(=O)N1CCC[C@H]1C(=O)N[C@@H](CO)C(N)=O)C(C)C
# B3: Compound 19 (peptide)
# peptide: [NMeY][Aib]EGTFISDYSI[Aib]K([AEEA-AEEA-γGlu-γGlu-C15 diacid])DR[Aib]AQ[Aib]NFVNWLLAQRPSSGAPPPS-NH2
# modifications: N-terminus assumed
# SMILES: CC[C@H](C)[C@H](NC(=O)[C@H](Cc1ccccc1)NC(=O)[C@@H](NC(=O)CNC(=O)[C@H](CCC(=O)O)NC(=O)C(C)(C)NC(=O)[C@H](Cc1ccc(O)cc1)NC)[C@@H](C)O)C(=O)N[C@@H](CO)C(=O)N[C@@H](CC(=O)O)C(=O)N[C@@H](Cc1ccc(O)cc1)C(=O)N[C@@H](CO)C(=O)N[C@H](C(=O)NC(C)(C)C(=O)N[C@@H](CCCCNC(=O)COCCOCCNC(=O)COCCOCCNC(=O)CC[C@H](NC(=O)CC[C@H](NC(=O)CCCCCCCCCCCCCC(=O)O)C(=O)O)C(=O)O)C(=O)N[C@@H](CC(=O)O)C(=O)N[C@@H](CCCNC(=N)N)C(=O)NC(C)(C)C(=O)N[C@@H](C)C(=O)N[C@@H](CCC(N)=O)C(=O)NC(C)(C)C(=O)N[C@@H](CC(N)=O)C(=O)N[C@@H](Cc1ccccc1)C(=O)N[C@H](C(=O)N[C@@H](CC(N)=O)C(=O)N[C@@H](Cc1c[nH]c2ccccc12)C(=O)N[C@@H](CC(C)C)C(=O)N[C@@H](CC(C)C)C(=O)N[C@@H](C)C(=O)N[C@@H](CCC(N)=O)C(=O)N[C@@H](CCCNC(=N)N)C(=O)N1CCC[C@H]1C(=O)N[C@@H](CO)C(=O)N[C@@H](CO)C(=O)NCC(=O)N[C@@H](C)C(=O)N1CCC[C@H]1C(=O)N1CCC[C@H]1C(=O)N1CCC[C@H]1C(=O)N[C@@H](CO)C(N)=O)C(C)C)[C@@H](C)CC
# B4: Compound 21 (peptide)
# peptide: [NMeY][Aib]EGTFISDYSI[Aib]LDR[Aib]AQ[Aib]NFVNWLLAQK([AEEA-AEEA-γGlu-γGlu-C15 diacid])PSSGAPPPS-NH2
# modifications: N-terminus assumed
# SMILES: CC[C@H](C)[C@H](NC(=O)[C@H](Cc1ccccc1)NC(=O)[C@@H](NC(=O)CNC(=O)[C@H](CCC(=O)O)NC(=O)C(C)(C)NC(=O)[C@H](Cc1ccc(O)cc1)NC)[C@@H](C)O)C(=O)N[C@@H](CO)C(=O)N[C@@H](CC(=O)O)C(=O)N[C@@H](Cc1ccc(O)cc1)C(=O)N[C@@H](CO)C(=O)N[C@H](C(=O)NC(C)(C)C(=O)N[C@@H](CC(C)C)C(=O)N[C@@H](CC(=O)O)C(=O)N[C@@H](CCCNC(=N)N)C(=O)NC(C)(C)C(=O)N[C@@H](C)C(=O)N[C@@H](CCC(N)=O)C(=O)NC(C)(C)C(=O)N[C@@H](CC(N)=O)C(=O)N[C@@H](Cc1ccccc1)C(=O)N[C@H](C(=O)N[C@@H](CC(N)=O)C(=O)N[C@@H](Cc1c[nH]c2ccccc12)C(=O)N[C@@H](CC(C)C)C(=O)N[C@@H](CC(C)C)C(=O)N[C@@H](C)C(=O)N[C@@H](CCC(N)=O)C(=O)N[C@@H](CCCCNC(=O)COCCOCCNC(=O)COCCOCCNC(=O)CC[C@H](NC(=O)CC[C@H](NC(=O)CCCCCCCCCCCCCC(=O)O)C(=O)O)C(=O)O)C(=O)N1CCC[C@H]1C(=O)N[C@@H](CO)C(=O)N[C@@H](CO)C(=O)NCC(=O)N[C@@H](C)C(=O)N1CCC[C@H]1C(=O)N1CCC[C@H]1C(=O)N1CCC[C@H]1C(=O)N[C@@H](CO)C(N)=O)C(C)C)[C@@H](C)CC
# B5: Compound 29 (peptide)
# peptide: [NMeY][Aib]EGTFISDYSIALDR[Aib]AQ[Aib]K([AEEA-γGlu-γGlu-γGlu-C15 diacid])FVNWLL[Aib]QK-NH2
# modifications: N-terminus assumed
# SMILES: CC[C@H](C)[C@H](NC(=O)[C@H](CO)NC(=O)[C@H](Cc1ccc(O)cc1)NC(=O)[C@H](CC(=O)O)NC(=O)[C@H](CO)NC(=O)[C@@H](NC(=O)[C@H](Cc1ccccc1)NC(=O)[C@@H](NC(=O)CNC(=O)[C@H](CCC(=O)O)NC(=O)C(C)(C)NC(=O)[C@H](Cc1ccc(O)cc1)NC)[C@@H](C)O)[C@@H](C)CC)C(=O)N[C@@H](C)C(=O)N[C@@H](CC(C)C)C(=O)N[C@@H](CC(=O)O)C(=O)N[C@@H](CCCNC(=N)N)C(=O)NC(C)(C)C(=O)N[C@@H](C)C(=O)N[C@@H](CCC(N)=O)C(=O)NC(C)(C)C(=O)N[C@@H](CCCCNC(=O)COCCOCCNC(=O)CC[C@H](NC(=O)CC[C@H](NC(=O)CC[C@H](NC(=O)CCCCCCCCCCCCCC(=O)O)C(=O)O)C(=O)O)C(=O)O)C(=O)N[C@@H](Cc1ccccc1)C(=O)N[C@H](C(=O)N[C@@H](CC(N)=O)C(=O)N[C@@H](Cc1c[nH]c2ccccc12)C(=O)N[C@@H](CC(C)C)C(=O)N[C@@H](CC(C)C)C(=O)NC(C)(C)C(=O)N[C@@H](CCC(N)=O)C(=O)N[C@@H](CCCCN)C(N)=O)C(C)C
# B6: Compound 119 (peptide)
# peptide: [NMeY][Aib]EGTFISDYSIALDR[Aib]K([AEEA-AEEA-γGlu-γGlu-C16 diacid])Q[Aib]NFVNWLLAQSPSSGAPPPS-NH2
# B7: Compound 16 (peptide)
# peptide: [NMeY][Aib]EGTFISDYSIAK([AEEA-AEEA-γGlu-γGlu-C15 diacid])DR[Aib]AQ[Aib]NFVNWLLAQS
# Target: human plasma proteins
# Experiment: plasma protein binding, ultracentrifugation of spiked plasma, LC-MS/MS
row,Binder,"Human PPB (Fu,plasma), fraction unbound (fraction unbound)"
1,B1,0.064
2,B2,0.0588
3,B3,0.0321
4,B4,0.0414
5,B5,0.018
6,B6,0.0185
7,B7,0.0441

# Target: dog plasma proteins
# Experiment: as above
row,Binder,"Dog PPB (Fu,plasma), fraction unbound (fraction unbound)"
1,B1,0.0675
2,B2,0.0517
3,B3,0.0361
4,B4,0.037
5,B6,0.0105
6,B7,0.0151

# Target: full-length human GLP-1R with an N-terminal FLAG tag (human, UniProt P43220 24-463)
# Experiment: cell-based or functional assay
row,Binder,Human GLP1R cAMP HEK293T EC50
1,B5,47.1 nM

# Target: T1, full-length human GIPR with an N-terminal FLAG tag (human, UniProt P48546 22-466)
# T1 sequence (looked up): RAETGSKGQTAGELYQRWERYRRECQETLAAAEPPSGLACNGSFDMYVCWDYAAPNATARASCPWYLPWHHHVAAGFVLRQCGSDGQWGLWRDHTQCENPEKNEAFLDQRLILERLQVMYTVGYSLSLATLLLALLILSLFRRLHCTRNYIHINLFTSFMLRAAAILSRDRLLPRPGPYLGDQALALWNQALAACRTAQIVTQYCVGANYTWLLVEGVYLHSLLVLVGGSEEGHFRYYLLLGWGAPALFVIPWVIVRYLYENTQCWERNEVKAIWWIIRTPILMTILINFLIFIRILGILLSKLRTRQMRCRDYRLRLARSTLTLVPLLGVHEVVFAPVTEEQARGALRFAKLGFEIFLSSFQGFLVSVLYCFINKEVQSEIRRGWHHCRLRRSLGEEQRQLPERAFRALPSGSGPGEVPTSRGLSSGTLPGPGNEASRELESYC
# Experiment: cell-based or functional assay
row,Binder,"Human GIPR cAMP, HEK293T EC50"
1,B5,0.0001 nM
